{"source": "the RNAGym collection of RNA variant scans (doi:10.1093/molbev/msab373)", "parents": {"B1": {"name": "Azoarcus group I ribozyme (parent)", "chain": "GUGCCUUGCGCCGGGAAACCACGCAAGGGAUGGUGUCAAAUUCGGCGAAACCUAAGCGCCCGCCCGGGCGUAUGGCAACGCCGAGCCAAGCUUCGGCGCCUGCGCCGAUGAAGGUGUAGAGACUAGACGGCACCCACCUAAGGCAAACGCUAUGGUGAAGGCAUAGUCCAGGGAGUGGCGAAAGUCACACAAACCGG"}}, "data": [{"variants_of": "B1", "test": "reverse-splicing fitness (ratio to wild type); higher = more active; in vitro selection; Mg2+ level not given", "method_in_brief": "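An in vitro group I ribozyme library with randomized positions was T7-transcribed and gel-purified. In triplicate, 10 pmol RNA in EPPS pH 7.5 was reacted with 50 pmoles of a 30-nt RNA substrate for 1 h at 37 °C across several added MgCl2 levels (1–48 mM), then stopped with EDTA. Products were reverse transcribed from a substrate-complementary primer, PCR-amplified and sequenced (HiSeq 4000). Fitness is a variant's read proportion after selection over that before, normalised to wild type.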", "values": [{"variant": "C82U A111U A120G A145U C150U C169U U176C", "reverse-splicing fitness": 0.0139}, {"variant": "C82U A111U A120G A145U C150U C169U U176A", "reverse-splicing fitness": 0.0203}, {"variant": "C82U A111U A120G A145U C150U C169U U176G", "reverse-splicing fitness": 0.00432}, {"variant": "C82U A111U A120G A145C C150G U176A", "reverse-splicing fitness": 0.00493}, {"variant": "C82U A111U A120G A145C C150G U176G", "reverse-splicing fitness": 0.0024}, {"variant": "C82U A111U A120G A145C C150G U176C", "reverse-splicing fitness": 0.00719}, {"variant": "C82U A111U A120G C150A U176G", "reverse-splicing fitness": 0.00633}, {"variant": "C82U A111U A120G C150A U176C", "reverse-splicing fitness": 0.0164}, {"variant": "C82U A111U A120G C150A U176A", "reverse-splicing fitness": 0.0114}, {"variant": "C82U A111U A120U A145C C150A U176A", "reverse-splicing fitness": 0.00354}, {"variant": "C82U A111U A120U A145C C150A U176G", "reverse-splicing fitness": 0.00245}, {"variant": "C82U A111U A120U A145C C150A U176C", "reverse-splicing fitness": 0.00387}, {"variant": "C82U A111U A120U A145C C150A C169A U176C", "reverse-splicing fitness": 0.00217}, {"variant": "C82U A111U A120U A145C C150A C169A U176A", "reverse-splicing fitness": 0.00203}, {"variant": "C82U A111U A120U A145C C150A C169A U176G", "reverse-splicing fitness": 0.00264}, {"variant": "C82U A111U A120G A145C C150A C169A U176A", "reverse-splicing fitness": 0.0108}, {"variant": "C82U A111U A120G A145C C150A C169A U176G", "reverse-splicing fitness": 0.00517}, {"variant": "C82U A111U A120G A145C C150A C169A U176C", "reverse-splicing fitness": 0.0062}, {"variant": "C82U A111U A120U", "reverse-splicing fitness": 0.0242}, {"variant": "C82U A111U A120G", "reverse-splicing fitness": 0.0168}, {"variant": "C82U A111U A120U A145C C150A C169U U176A", "reverse-splicing fitness": 0.0025}, {"variant": "C82U A111U A120U A145C C150A C169U U176G", "reverse-splicing fitness": 0.00213}, {"variant": "C82U A111U A120U A145C C150A C169U U176C", "reverse-splicing fitness": 0.00269}, {"variant": "C82U A111U A120U A145C C150A", "reverse-splicing fitness": 0.00466}, {"variant": "C82U A111U A120U A145C C150G", "reverse-splicing fitness": 0.00588}, {"variant": "C82U A111U A120U A145C C150U", "reverse-splicing fitness": 0.00815}, {"variant": "C82U A111U A120G A145C", "reverse-splicing fitness": 0.0134}, {"variant": "C82U A111U A120G A145U", "reverse-splicing fitness": 0.0147}, {"variant": "C82U A111U A120G A145G", "reverse-splicing fitness": 0.0162}, {"variant": "C82U A111U A120G A145G C150G C169U U176G", "reverse-splicing fitness": 0.00647}, {"variant": "C82U A111U A120G A145G C150G C169U U176A", "reverse-splicing fitness": 0.012}, {"variant": "C82U A111U A120G A145G C150G C169U U176C", "reverse-splicing fitness": 0.0112}, {"variant": "C82U A111U A120G A145C C169G U176C", "reverse-splicing fitness": 0.0149}, {"variant": "C82U A111U A120G A145C C169G U176G", "reverse-splicing fitness": 0.004}, {"variant": "C82U A111U A120G A145C C169G U176A", "reverse-splicing fitness": 0.0262}, {"variant": "C82U A111U A120G C150G C169U U176G", "reverse-splicing fitness": 0.00556}, {"variant": "C82U A111U A120G C150G C169U U176C", "reverse-splicing fitness": 0.0119}, {"variant": "C82U A111U A120G C150G C169U U176A", "reverse-splicing fitness": 0.0122}, {"variant": "C82U A111U A120G A145U C150U C169A U176G", "reverse-splicing fitness": 0.00462}, {"variant": "C82U A111U A120G A145U C150U C169A U176C", "reverse-splicing fitness": 0.00959}, {"variant": "C82U A111U A120G A145U C150U C169A U176A", "reverse-splicing fitness": 0.0127}, {"variant": "C82U A111U A120G A145U C169U U176G", "reverse-splicing fitness": 0.0035}, {"variant": "C82U A111U A120G A145U C169U U176C", "reverse-splicing fitness": 0.0132}, {"variant": "C82U A111U A120G A145U C169U U176A", "reverse-splicing fitness": 0.0203}, {"variant": "C82U A111U A120U A145G C150A C169G U176C", "reverse-splicing fitness": 0.0045}, {"variant": "C82U A111U A120U A145G C150A C169G U176G", "reverse-splicing fitness": 0.00241}, {"variant": "C82U A111U A120U A145G C150A C169G U176A", "reverse-splicing fitness": 0.00789}, {"variant": "C82U A111U A120G A145G C150A C169U", "reverse-splicing fitness": 0.00848}, {"variant": "C82U A111U A120G A145G C150A C169G", "reverse-splicing fitness": 0.00828}, {"variant": "C82U A111U A120G A145G C150A C169A", "reverse-splicing fitness": 0.0105}, {"variant": "C82U A111U A120G A145C C169U", "reverse-splicing fitness": 0.00777}, {"variant": "C82U A111U A120G A145C C169A", "reverse-splicing fitness": 0.007}, {"variant": "C82U A111U A120G A145C C169G", "reverse-splicing fitness": 0.00962}, {"variant": "C82U A111U A120G A145U C150G C169G U176C", "reverse-splicing fitness": 0.00435}, {"variant": "C82U A111U A120G A145U C150G C169G U176G", "reverse-splicing fitness": 0.00385}, {"variant": "C82U A111U A120G A145U C150G C169G U176A", "reverse-splicing fitness": 0.00623}, {"variant": "C82U A111U A120G A145G C150G C169A U176A", "reverse-splicing fitness": 0.0128}, {"variant": "C82U A111U A120G A145G C150G C169A U176G", "reverse-splicing fitness": 0.00764}, {"variant": "C82U A111U A120G A145G C150G C169A U176C", "reverse-splicing fitness": 0.0113}, {"variant": "C82U A111U A120G A145U C150A C169U U176C", "reverse-splicing fitness": 0.0141}, {"variant": "C82U A111U A120G A145U C150A C169U U176A", "reverse-splicing fitness": 0.0203}, {"variant": "C82U A111U A120G A145U C150A C169U U176G", "reverse-splicing fitness": 0.00425}, {"variant": "C82U A111U A120G A145C C150A C169G U176G", "reverse-splicing fitness": 0.00478}, {"variant": "C82U A111U A120G A145C C150A C169G U176C", "reverse-splicing fitness": 0.0136}, {"variant": "C82U A111U A120G A145C C150A C169G U176A", "reverse-splicing fitness": 0.0242}, {"variant": "C82U A111U A120G A145C C150U C169A U176A", "reverse-splicing fitness": 0.0102}, {"variant": "C82U A111U A120G A145C C150U C169A U176C", "reverse-splicing fitness": 0.00544}, {"variant": "C82U A111U A120G A145C C150U C169A U176G", "reverse-splicing fitness": 0.00482}, {"variant": "C82U A111U A120G A145U C150G C169U U176G", "reverse-splicing fitness": 0.00463}, {"variant": "C82U A111U A120G A145U C150G C169U U176C", "reverse-splicing fitness": 0.0111}, {"variant": "C82U A111U A120G A145U C150G C169U U176A", "reverse-splicing fitness": 0.0116}, {"variant": "C82U A111U A120G A145C U176A", "reverse-splicing fitness": 0.00965}, {"variant": "C82U A111U A120G A145C U176G", "reverse-splicing fitness": 0.00374}, {"variant": "C82U A111U A120G A145C U176C", "reverse-splicing fitness": 0.00925}, {"variant": "C82U A111U A120U A145G C150A C169G", "reverse-splicing fitness": 0.00478}, {"variant": "C82U A111U A120U A145G C150A C169U", "reverse-splicing fitness": 0.00374}, {"variant": "C82U A111U A120U A145G C150A C169A", "reverse-splicing fitness": 0.00571}, {"variant": "C82U A111U A120U A145G C150A", "reverse-splicing fitness": 0.00852}, {"variant": "C82U A111U A120U A145G C150A C169A U176C", "reverse-splicing fitness": 0.00382}, {"variant": "C82U A111U A120U A145G C150A C169A U176A", "reverse-splicing fitness": 0.0063}, {"variant": "C82U A111U A120U A145G C150A C169A U176G", "reverse-splicing fitness": 0.00245}, {"variant": "C82U A111U A120G A145C C150G C169G", "reverse-splicing fitness": 0.0068}, {"variant": "C82U A111U A120G A145C C150G C169A", "reverse-splicing fitness": 0.00779}]}]}
